doi:10.1101/786475 (bioRxiv, 2019)

Key:
Assay in all cases: peptide or protein array
[1] = target: T1, Cap2p (spotted on the yeast ProtoArray) (S. cerevisiae, UniProt P13517 1-287)
T1 sequence (looked up): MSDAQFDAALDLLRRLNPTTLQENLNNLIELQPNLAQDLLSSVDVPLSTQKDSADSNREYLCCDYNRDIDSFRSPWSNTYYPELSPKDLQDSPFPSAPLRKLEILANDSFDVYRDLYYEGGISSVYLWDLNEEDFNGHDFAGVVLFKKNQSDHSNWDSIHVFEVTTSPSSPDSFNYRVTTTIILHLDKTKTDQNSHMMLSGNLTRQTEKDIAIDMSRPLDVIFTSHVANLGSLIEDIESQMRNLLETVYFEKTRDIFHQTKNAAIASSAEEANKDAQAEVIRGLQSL

[2] = target: Frd1p (spotted on the yeast ProtoArray) (S. cerevisiae, UniProt P32614 1-470)
Chain of Frd1p (spotted on the yeast ProtoArray) (P32614 whole entry): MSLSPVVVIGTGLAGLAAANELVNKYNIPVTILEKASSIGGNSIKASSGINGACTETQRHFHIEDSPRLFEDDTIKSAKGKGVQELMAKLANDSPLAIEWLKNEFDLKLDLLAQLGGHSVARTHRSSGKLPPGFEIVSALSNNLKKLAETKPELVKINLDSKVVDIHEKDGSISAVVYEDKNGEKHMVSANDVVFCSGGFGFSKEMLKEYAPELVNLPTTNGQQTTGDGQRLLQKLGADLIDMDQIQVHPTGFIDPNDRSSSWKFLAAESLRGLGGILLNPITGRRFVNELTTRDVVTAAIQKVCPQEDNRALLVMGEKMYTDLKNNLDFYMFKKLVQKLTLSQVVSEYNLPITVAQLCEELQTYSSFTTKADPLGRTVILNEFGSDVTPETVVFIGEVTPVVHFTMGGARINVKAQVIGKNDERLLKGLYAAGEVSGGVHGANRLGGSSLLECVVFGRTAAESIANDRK

[3] = target: T2, Gpp2p (spotted on the yeast ProtoArray) (S. cerevisiae, UniProt P40106 1-250)
T2 sequence (looked up): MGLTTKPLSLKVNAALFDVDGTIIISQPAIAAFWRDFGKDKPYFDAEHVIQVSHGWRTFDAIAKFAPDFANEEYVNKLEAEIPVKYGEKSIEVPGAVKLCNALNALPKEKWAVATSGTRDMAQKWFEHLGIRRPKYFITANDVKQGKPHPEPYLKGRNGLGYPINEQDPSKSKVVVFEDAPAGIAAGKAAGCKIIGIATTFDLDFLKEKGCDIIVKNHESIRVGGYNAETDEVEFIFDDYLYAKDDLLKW

[4] = target: T3, Pol30p (spotted on the yeast ProtoArray) (S. cerevisiae, UniProt P15873 1-258)
T3 sequence (looked up): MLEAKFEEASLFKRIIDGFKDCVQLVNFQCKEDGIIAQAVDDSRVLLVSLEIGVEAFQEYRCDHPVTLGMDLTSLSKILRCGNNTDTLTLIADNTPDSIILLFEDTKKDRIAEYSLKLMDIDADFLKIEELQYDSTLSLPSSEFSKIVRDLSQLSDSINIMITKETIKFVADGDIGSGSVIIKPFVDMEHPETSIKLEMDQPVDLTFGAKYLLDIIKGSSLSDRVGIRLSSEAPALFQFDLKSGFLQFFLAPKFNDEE

[5] = target: T4, Emi2p (spotted on the yeast ProtoArray) (S. cerevisiae, UniProt Q04409 1-500)
T4 sequence (looked up): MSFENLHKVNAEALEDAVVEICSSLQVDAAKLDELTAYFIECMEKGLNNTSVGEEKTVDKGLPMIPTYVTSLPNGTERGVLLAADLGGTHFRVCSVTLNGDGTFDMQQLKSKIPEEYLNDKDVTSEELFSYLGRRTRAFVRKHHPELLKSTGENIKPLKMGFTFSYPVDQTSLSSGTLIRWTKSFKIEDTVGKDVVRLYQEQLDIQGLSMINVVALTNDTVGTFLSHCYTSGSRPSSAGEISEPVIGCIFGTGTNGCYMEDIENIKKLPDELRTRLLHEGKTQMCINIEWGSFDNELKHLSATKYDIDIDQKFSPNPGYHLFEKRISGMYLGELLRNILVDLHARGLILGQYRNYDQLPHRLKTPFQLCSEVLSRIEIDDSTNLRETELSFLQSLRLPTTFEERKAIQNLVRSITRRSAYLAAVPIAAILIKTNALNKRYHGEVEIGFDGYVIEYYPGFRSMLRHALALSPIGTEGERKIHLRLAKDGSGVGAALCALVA

[6] = target: T5, Eno2p (spotted on the yeast ProtoArray) (S. cerevisiae, UniProt P00925 1-437)
T5 sequence (looked up): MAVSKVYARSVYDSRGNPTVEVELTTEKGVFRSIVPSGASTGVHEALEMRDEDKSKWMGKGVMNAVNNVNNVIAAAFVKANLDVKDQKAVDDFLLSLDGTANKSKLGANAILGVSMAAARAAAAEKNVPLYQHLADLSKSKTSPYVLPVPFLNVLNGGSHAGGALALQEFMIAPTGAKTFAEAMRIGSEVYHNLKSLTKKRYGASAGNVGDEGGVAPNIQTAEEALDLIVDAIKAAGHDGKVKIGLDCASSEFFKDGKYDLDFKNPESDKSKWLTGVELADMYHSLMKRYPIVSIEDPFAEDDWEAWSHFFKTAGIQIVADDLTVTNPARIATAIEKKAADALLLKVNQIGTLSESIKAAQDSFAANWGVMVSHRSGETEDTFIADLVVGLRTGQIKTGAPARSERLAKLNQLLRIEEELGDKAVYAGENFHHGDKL

binding result [1]: binds
binding result [2]: binds
binding result [3]: binds
binding result [4]: binds
binding result [5]: binds
binding result [6]: binds
B1: purified and biotinylated cytoplasmic domain of the Msb2p protein (HIS-Msb2p^CYT) (domain or fragment, S. cerevisiae, UniProt P32334 1207-1306, looked up)
chain: AFKYIIRRRIQSQEIIKNPEISSISSSEFGGEKNYNNEKRMSVQESITQSMRIQNWMDDSYYGHGLTNNDSTPTRHNTSSSIPKISRPIASQNSLGWNEV
modifications: biotinylated in vitro (sites not given)
